From paper PMC3725505

target: Kelch domain of human Keap1 (residues 321-609) (human), Q14145; assay: ITC
Sequence (Q14145 321-609): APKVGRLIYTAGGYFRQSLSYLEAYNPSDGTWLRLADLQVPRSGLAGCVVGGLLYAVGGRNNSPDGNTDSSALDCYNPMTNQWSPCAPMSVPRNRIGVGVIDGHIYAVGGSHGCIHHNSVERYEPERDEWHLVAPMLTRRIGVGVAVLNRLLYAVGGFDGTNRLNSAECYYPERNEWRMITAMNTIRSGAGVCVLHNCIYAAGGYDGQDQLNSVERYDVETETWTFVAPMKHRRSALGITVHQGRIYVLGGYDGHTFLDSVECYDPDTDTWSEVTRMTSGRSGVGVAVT

Row | Binder | Kd | dH | stoichiometry N
1 | ANGNANEENGEQEADNEVDE (modifications not checked) [PTMA isoform 2 peptide (20-mer)] | 2.62 µM | -17.3 kcal/mol | 1.05
2 | LSSKEVDPSTGELQSLQMPE (modifications not checked) [p62 peptide (20-mer)] | 1.3 µM |  | 
3 | ANGNAENEENGEQEADNEVD (modifications not checked) [PTMA isoform 1 peptide (20-mer)] | 11.6 µM | -14.7 kcal/mol | 1.07
4 | FAQLQLDEETGEFLPIQPAQ (modifications not checked) [NRF2 site 1 peptide (20-mer)] | 0.023 µM | -17 kcal/mol | 1.08
5 | FAQLQLDPETGEFLPIQPAQ (modifications not checked) [NRF2 site 1 E78P peptide (20-mer)] | 0.007 µM | -16.8 kcal/mol | 
